From article PMC10243991

Target: GST-MdPP2AC (apple (Malus × domestica Borkh.))
Assay: MST; GST-MdPP2AC labelled with RED-NHS dye, 100 nM, in 0.05% PBS Tween buffer; MdSnRK2.6 titrated (3.81 × 10^−4 to 25 nM as printed); Monolith NT.115

Kd: 109 nM
Substance: MdSnRK2.6-His (enzyme)
